Laboratory results published in the RNAGym collection of RNA variant scans (doi:10.7554/elife.90254).

B1: LINE1-full (parent)
chain: UACGUAGGUGGUUUUCCCCUGAUAGUGCUAAGGGGGCCUGGAAGUUUGGACUGGGCAGAGCUCAACACAGCGUGGCAAAGUGGCUGUGGCUAGACUGCCUCUCUGGAUUCCUCGUCACUCAGCAGGGCAUCUCUGAGAGAAAUGCC

Variants of: B1
Experiment: self-cleavage, relative activity (ratio to wild type); higher = more cleavage; in vitro, sequencing; the parent is a self-cleaving ribozyme
In the case of UACGUAGGUGGUUUUCCCCUGAUAGUGCUAAGGGGGCCUGGAAGUUUGGACUGGGCAGAGCUCAACACAGCGUGGCAGAGUGGCUGUGCCUAGACUGCCUCUCUGGAUUCCUCGUCACUCAGCAGGGCAUCUCUGAGAGAAAUGCC [A78G G89C], the self-cleavage is reported as 0.07. For UACGUAGGUGGUCUUCCCCUGAUAGUACUAAGGGGGCCUGGAAGUUUGGACUGGGCAGAGCUCAACACAGCGUGGCAAAGUGGCUGUGGCUAGACUGCCUCUCUGGAUUCCUCGUCACUCAGCAGGGCAUCUCUGAGAGAAAUGCC [U13C G27A], the self-cleavage was 0.85. UACGUAGGUGGUUUUCCCCUGAUAGUGCUAAGGGGGCCUGGAAGUUUGGACUGGGCAGAGCUCAACACAGCGUGGCAAAGUGGCUGUGGCUAGACUGCCUCUCCGGAUUCCCCGUCACUCAGCAGGGCAUCUCUGAGAGAAAUGCC [U104C U112C] showed a self-cleavage of 1.66. In the case of UACGUAGGUGGUUUUCCCCUGAUAGUGCUAAGGGGGCCUGGAAGUUUGGACUGGGCAGAGCUCAACAUAGCGUGGCAAAGUGGCUGUGGCUAGACUGCCUCUCUGGAUUCCUCGUCACUCAGCAGGGCAUCCCUGAGAGAAAUGCC [C68U U132C], the self-cleavage is reported as 0.25. UACGUAGGUGGUUUUCCCCUGAUAGUGCUAAAGGGGCCUGGAAGUUUGGACUGGGCAGAGCUCAACACAGCGUGGCAAAGUGGCUGUGGCUAGACUGCCUCUCUGGUUUCCUCGUCACUCAGCAGGGCAUCUCUGAGAGAAAUGCC [G32A A107U] showed a self-cleavage of 1.27. With UACGUAGGUGGUUUUCCCCCGAUAGAGCUAAGGGGGCCUGGAAGUUUGGACUGGGCAGAGCUCAACACAGCGUGGCAAAGUGGCUGUGGCUAGACUGCCUCUCUGGAUUCCUCGUCACUCAGCAGGGCAUCUCUGAGAGAAAUGCC [U20C U26A] the self-cleavage was 0.92. Work on UACGUAGGUGGUUUUCCCCUGAUAGUGCUAAGGGGGCCUGGAAGUUUGGACUGGGCAGAGCUCAACACAGCGUGGCGAAGUGGCUGUGGCUAGACUGCCUCUCUGGAUUCCUCGUCACUCAGCAGGGCAUCACUGAGAGAAAUGCC [A77G U132A] yielded a self-cleavage of 2.34. Variant UACGUAGGUGGUUUUCCCCUGAUAGUGCUAAGGGGGCCUGGAAGUUUGGACUGGGCAGAGCUCAACGCAGCGUGGCAAAGUGGCUGUGGCUAGACUGCCUCUCUGGAUUCCUCGUCACUCCGCAGGGCAUCUCUGAGAGAAAUGCC [A67G A121C] has a self-cleavage of 0.62. Variant UACGUAGGUGGUUUUCCCCUGAUAGUGCUAAGGGGGCCUGGAAGUUUGGACUGGGCAGGGCUCAACACAGCGUGGCAAAGUGGCUGUGACUAGACUGCCUCUCUGGAUUCCUCGUCACUCAGCAGGGCAUCUCUGAGAGAAAUGCC [A59G G89A] has a self-cleavage of 0.01. UACGUAGGUGGUUUUCCCCUGAUAGUGCUAAGGGGGCCUGGAAGUUUGGACUGGGCAGAGCUCAACACUGCGUGGCAAAGUGGCUGUGGCUAGACUGCCUCUCUGGGUUCCUCGUCACUCAGCAGGGCAUCUCUGAGAGAAAUGCC [A69U A107G] showed a self-cleavage of 0.08. For UACGUAGGUGGUUUUCCCCUGAUUGUGCUAAGGGGGCCUGGAAGUUUGGACUGGGCAGAGCUCAACACAGCGUGGCAAAGUGGCUGUGGCUAGACUGCCUCUCUGGAUUCCUCGUCACUCAGCAGGGCAUCUCUGAGAGAAAUGUC [A24U C145U], the self-cleavage was 1.4. UACGUAGGUGGUUUUCCCCUGAUAGUGCUAAGGGGGCCUGGAAGUUUGGACUGGGCAGAGCUCAACACAGCGUGGCAAAGUGGCUGAGGCCAGACUGCCUCUCUGGAUUCCUCGUCACUCAGCAGGGCAUCUCUGAGAGAAAUGCC [U87A U91C] gave a self-cleavage of 0.07. With UACGUAGGUGGUUUUCCCCUGAUAGUGCGAAGGGGGCCUGGAAGUUUGGACUGGGCAGAGCUCAACACAGGGUGGCAAAGUGGCUGUGGCUAGACUGCCUCUCUGGAUUCCUCGUCACUCAGCAGGGCAUCUCUGAGAGAAAUGCC [U29G C71G] the self-cleavage was 0.23. For UACGUAGGUGGUUUUCCCCUGAUAGUGCUAAGGGGGCCUGGAAGUUUGGACUGGGCAGAGCUCAACACAGCGUGGCAAAGUGGCUGUGUCUAAACUGCCUCUCUGGAUUCCUCGUCACUCAGCAGGGCAUCUCUGAGAGAAAUGCC [G89U G93A], the self-cleavage was 0.04. In the case of UACGUAGGUGGUUUUCCCCUGAUAGUGCUAAGGGGGCCUGGAUGUUUGGACUGGGCAGAGCUCAACACAGCGUGGCAAAGUGGCUGUGGCUAGACUGCCUCUCUGGAUUCCUCGUCACUCAGCAGGGCAUCUCUGAGAGAGAUGCC [A43U A141G], the self-cleavage is reported as 1.38. For UACGUAGGUGGUUUUCCCCUGAUUGUGCUAAGGGGGCCUGGAAGUUUGGACUGGGCAGAGCUCAACACAGCGUGGCAAAGUGGCUGAGGCUAGACUGCCUCUCUGGAUUCCUCGUCACUCAGCAGGGCAUCUCUGAGAGAAAUGCC [A24U U87A], the self-cleavage was 0.11. In the case of UACGUAGGUGGUUUUCCCCUGAUAGUGCUAAGGGGGCCUGGAAGUUUGGACUGGGCAAAGCUCAACACAGCGUGGCAAAGUGGCUGUGGCUAGACUGCCUCUCUGGAUUUCUCGUCACUCAGCAGGGCAUCUCUGAGAGAAAUGCC [G58A C110U], the self-cleavage is reported as 0.05. UAUGUAGGUGGUUUUCCCCUGAUAGUGCUAAGGGGGCCUGGAAGUUUGGACUGGGCAGAGCUCAACACAGCGUGGCAAAGUGGCUGUGGCUAAACUGCCUCUCUGGAUUCCUCGUCACUCAGCAGGGCAUCUCUGAGAGAAAUGCC [C3U G93A] showed a self-cleavage of 0. With UACGUAGGUGAUUUUCCCCUGAUUGUGCUAAGGGGGCCUGGAAGUUUGGACUGGGCAGAGCUCAACACAGCGUGGCAAAGUGGCUGUGGCUAGACUGCCUCUCUGGAUUCCUCGUCACUCAGCAGGGCAUCUCUGAGAGAAAUGCC [G11A A24U] the self-cleavage was 1.72.
